Laboratory results reported in patent US20240287156A1 (published 2024).

Tests used:
[1] = target: T1, MAGEA4 peptide on HLA-A*01:01 (human); experiment: cytokine release
T1 peptide: LVTCLGLSY
Method: (§1) FIG. 7. […] IFNγ release to the supernatant was measured by ELISA after 18 hours of coculture.

[2] = target: T2, MAGEA4 peptide on HLA-A*01:01 (human); experiment: cytokine release
T2 peptide: WVQENYLEY
Method: as §1

[3] = target: T3, MAGEA4 peptide on HLA-A*01:01 (human); experiment: cytokine release
T3 peptide: TTEEQEAAV
Method: as §1

[4] = target: T4, MAGEA4 peptide on HLA-A*01:01 (human); experiment: cytokine release
T4 peptide: ELAHFLLRKY
Method: as §1

[5] = target: T5, MAGEA4 peptide on HLA-A*01:01 (human); experiment: cytokine release
T5 peptide: DWVQENYLEY
Method: as §1

[6] = target: T6, MAGEA4 peptide on HLA-A*01:01 (human); experiment: cytokine release
T6 peptide: TQDWVQENY
Method: as §1

[7] = target: T7, MAGEA4 peptide on HLA-A*01:01 (human); experiment: cytokine release
T7 peptide: WVQENYLEYR
Method: as §1

[8] = target: T8, MAGEA4 peptide on HLA-A*01:01 (human); experiment: cytokine release
T8 peptide: EVDPASNTYT
Method: as §1

[9] = target: T9, MAGEA4 peptide on HLA-A*01:01 (human); experiment: cytokine release
T9 peptide: TLVTCLGLSY
Method: as §1

[10] = target: T10, titin peptide on HLA-A*01:01 (human); experiment: cytokine release
T10 peptide: ESDPIVAQY
Method: as §1

[11] = target: T11, MAGEA4 peptide on HLA-A*01:01 (human); experiment: cytokine release
T11 peptide: LTQDWVQENY
Method: as §1

[12] = target: T12, MAGEA3 peptide on HLA-A*01:01 (human); experiment: cytokine release
T12 peptide: EVDPIGHLY
Method: as §1

[13] = target: T13, MAGEA4 peptide on HLA-A*01:01 (human); experiment: cytokine release
T13 peptide: KEVDPASNTY
Method: as §1

[14] = target: T14, MAGEA4 peptide on HLA-A*01:01 (human); experiment: IFN-gamma ELISA after 18 h; 1x10^5 TCR-transduced T cells with 5x10^4 peptide-loaded K562-A*01:01; two donors pooled, non-linear regression; full-length, on cells
T14 peptide: EVDPASNTY
Method: FIG. 6. […] The results of two donors were pooled and normalized as percentage of max. The depicted EC50 value was calculated by non-linear regression.
To calculate the EC50 value, non-linear regression was used to create a dose-response curve (FIG. 6). […] The K562 cells express HLA-A*01:01.

B1: CTC-TCR127 (TCR)
alpha TRAV35*01 CDR3: AGQLWGGSNYKLT
beta TRBV5-1*01 CDR3: ASSLAGTGAHFITNEKLF
- binding result [1]: no recognition
- binding result [2]: no recognition
- binding result [3]: no recognition
- binding result [4]: no recognition
- binding result [5]: no recognition
- binding result [6]: no recognition
- binding result [7]: no recognition
- binding result [8]: recognises
- binding result [9]: no recognition
- binding result [10]: no recognition
- binding result [11]: no recognition
- binding result [12]: no recognition
- binding result [13]: recognises
- EC50 of peptide [14]: 7.6 nM
